From the supplement of paper PMC9170038

How the values were obtained:
MS2 coat protein [1] = test: apparent KD of MS2 coat protein; higher = weaker reporter binding; details: Eterna round: R101
Description: (§1)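 RNA-MaP: designed FMN/MS2 RNA switches (84 nt design region) are transcribed on-chip within common flanks and titrated with SNAP-549-labelled MS2 coat protein (about 1-3000 nM) in 100 mM Tris pH 7.5, 80 mM KCl, 4 mM MgCl2, without or with 200 uM FMN. Median apparent KD per design; activation ratio = KD,OFF / KD,ON.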

MS2 coat protein [2] = test: apparent KD of MS2 coat protein; designed switch direction (-1 OFF switch, 1 ON switch): 1; higher = weaker reporter binding; details: Eterna round: R98
Description: as §1

Sequence | apparent KD of MS2 coat protein (MS2 coat protein [1]; input ligand: FMN 200 uM) [nM] | apparent KD of MS2 coat protein (MS2 coat protein [1]; input ligand: none) [nM] | apparent KD of MS2 coat protein (MS2 coat protein [2]; input ligand: FMN 200 uM) [nM] | apparent KD of MS2 coat protein (MS2 coat protein [2]; input ligand: none) [nM]
AAAGAUUUUCAAGGAUAUGACUCCGAAACGGAGUCAGAAGGUGAGGAUCACCCACCUAGCUCAGCGUCGAAAGACGCUGAGCAA [#SharedSequence ExNG1 - 27] (puzzle (switch architecture): Exclusion NG 1) | 103 | 13.5 | – | –
AAAUAAAUCGAAGGAUAUGACCCUCGAGGUGACUAAAAGUCACCUCGAGGGUCAGAAGGUCGAGGAUCACCCGAUCUAAAUAAA [#SharedSequence SLExNG1: 2-1] (puzzle (switch architecture): Small Loop Exclusion NG 1) | 259 | 16.2 | – | –
AAUAAUCAGGUAGGAUAUGCUCAGGAAUACUGAGCAGAAGGACUAGAAACCUGAGGAUCACCCAGGUAACUGGACCGGAAACGG [Same State NG1 - A3C, U17G Submission 6C] | – | – | 42.3 | 81.1
AAUAAUCUUUAAGGAUAUGACUCCGAAACGGAGUCAGAAGGUGAGGAUCACCCAUCUAGCUCAGGGUCGAAAGACCCUGAGCAA [#SharedSequence - ExNG1-11] (puzzle (switch architecture): Exclusion NG 1) | 101 | 49.6 | – | –
ACAGGUCGUGAGAAGGCGUGUGGCACCGUCGAAAGACGGUGCAAUUAAAAUCUUCGAGGAUCACCCGAGGAUAUCACGACCUGA [#SharedSequence - IExNG2: 19] (puzzle (switch architecture): Inverted Exclusion NG 2) | 32.2 | 12.2 | – | –
ACGUCCCGCAGAGGAUAUGUUGUUCGGCCUACAUGAGGAUCACCCAUGUCAAAGGGCUGAUCCCGACAGAAGGCUGAAGGAUAC [Qudiator] | – | – | 24.8 | 57.5
AGACCUGCUCAGAAGGCGGGUGCGAGGCUGGAAACAGCCUCGAAUUAAAAUCUUCGAGGAUCACCCGAGGAUAUGAGCAGGUCA [#SharedSequence - IExNG2: 16] (puzzle (switch architecture): Inverted Exclusion NG 2) | 19 | 54.2 | – | –
AUAAUAACUUGAGGAUAUCGAGUGGAAUACACUCGAGAAGGCAGGGAAACCUGAGGAUCACCCAGGUAAAUAAUAAUAAUAAUA [Same State NG1 - A3C, U17G Submission 1C] | – | – | 22.7 | 21.3
AUCAGCUCGUCAGGAUAUACGUCACUGCGUCAGCAGUGUGGUAAGAUCACAUGAGGAUCACCCAUGUAGAAGGGACGAGCUGAU [#MiniMS2Turnoff - Ex NG2 #82] (puzzle (switch architecture): Exclusion NG 2) | 273 | 13.7 | – | –
CACAGGGAUUCAGGAUAUAUUAGCCGAGGCCGCGUAGAAGGGAAAUCCUGACAUGAGGAUCACCCAUGUUAACCCACCUUCCAU [Fingerlickinggood#3] | – | – | 22.9 | 27.3
CCAAUAUAGUGAGGAUAUGCACAGGAUCACCGUGUAGAAGGCAUCAGGUAGAAGGUGCAGAGGAUCACCCUGUAAGGAUAUACA [pwkr2 ssNG1 DX.7] | – | – | 129 | 406
CCCUUCAGAAGAGGGACAUGAGGAUCACCCAUGUAGGCUGCACAGGAUAUCGAUCGGAGGCGGUACGAGAAGGGUGAUGUCAUU [Riorrebi] | – | – | 27.9 | 36.2
CGAGACACUUGAGGAUAUGCUCAGGAAUACUGAGCAGAAGGCAGGGAAACCUGAGGAUCACCCAGGUAACUGGAAAGUCUCGAA [Same State NG1 - A3C, U17G Submission 5A] | – | – | 19 | 29.2
CGGGAUACGAAGGGCGAAAGCCCACAUGAGGAUCACCCAUGUAGAAGGCGGGCCGCAACGCGGCCCGAGGAUAUACAGUAUCCA [#my 5th design] (puzzle (switch architecture): Inverted Exclusion NG 3) | 10.5 | 5.72 | – | –
GACGGAUUCUUAGGAUAUGCUCAGGAAUACUGAGCAGAAGGAAGAAUAACCUGAGGAUCACCCAGGUAAUACUGAACGUCAAUA [Same State NG1 - A3C, U17G Submission 9A] | – | – | 23.7 | 58.1
GCAAAUGGGCGAGGAUAUGGGACGGGCCUAAACAGGGCACAUGAGGAUCACCCAUGUCACACGACCCAGAAGGCGCUAAGAACG [Bemave] | – | – | 144 | 399

Sequence | apparent KD of MS2 coat protein (MS2 coat protein [1]; input ligand: FMN 200 uM) [nM] | apparent KD of MS2 coat protein (MS2 coat protein [1]; input ligand: none) [nM] | apparent KD of MS2 coat protein (MS2 coat protein [2]; input ligand: FMN 200 uM) [nM] | apparent KD of MS2 coat protein (MS2 coat protein [2]; input ligand: none) [nM]
GCAGAAGGUGCGGAGGAUCACCCUGUAAGGAUAUGCAUUAGCAAGGAUAUACAGAGGAUCACCCUGUAGAAGGUGCACUUCUGA [pwkr2 ssNG3 DX.8] | – | – | 2120 | 850
GCCAACUUAUGAGGAUAUGGCACCUUAUUGGUGCCAGAAGGCAUGUCAAUUGACAUGAGGAUCACCCAUGUAUUAUAGUUGGCA [Fiskers NG1ss - 20 m2] | – | – | 112 | 724
GCCAUCGUAUGAGGAUAUGGCACCGAAACGGUGCCAGAAGGCAUGUCAAUAGACAUGAGGAUCACCCAUGUAUUAUCGAUGGCA [MatMod 1 - Jieux - Same State NG 1] | – | – | 46.9 | 469
GCUGUCGCGUGAGGAUAUGGUCGGCAGUGCUGACCAGAAGGCAUGUCGAUAGACAUGAGGAUCACCCAUGUGGUUAGGGCGGCU [salish99_SSNG1_R02_015] | – | – | 464 | 491
GCUUGCGACGCAGGAUAUGGGUGCCUAAACACGAGGAUCACCCGUGUACAGGAAGCUAAAUGCUCUCAGAAGGGCGUCGCAGGC [United States 9 - Jieux - Same State NG 2] | – | – | 17.5 | 46.7
GGAUCGCUUGGAGGAUAUCCAACUAUCCUAGUUGGAGAAGGCCAAGCUACAGAGCUAAGCUUGGAAGUCACUUCGGAUCCACAC [pwkr ssNG1 F9.4.4] | – | – | 39.2 | 21.7
GGUCGACCUCAAGGAUAUGGACUGCAAAGCAGUCCAGAAGGUGAGGAUCACCCAUCUACGGUCAGGAAACUGACCGAUCGACCA [#SharedSequence - ExNG1-6] (puzzle (switch architecture): Exclusion NG 1) | 914 | 308 | – | –
GGUGUUAACACAGGAUAUCUGCGUAAACAGCGCGGAGAAGGGUGGGUGACCAAGGACACAUGAGGAUCACCCAUGUACCCUUAA [Timadier] (puzzle (switch architecture): Same State NG 1) | 184 | 72.7 | – | –
GGUUGACGACAAUUACAUGAGGAUCACCCAUGUUGUGGGAUGCAGGAUAUGUGGUAUAUUAAUUAACAGAAGGGCAAUAAUUUU [JR_SSNG3_Sub062] | – | – | 51 | 33.8
GUAGCAUACCGAGGAUAUUCAUACCGGAAACGGACAUGAGGAUCACCCAUGUAAAUUCUAAAUUGGGAGAAGGCGGAAUGCUAC [Xeonanis 75 6] | – | – | 46.6 | 410
GUCACGGUUAAUUCCGUGACGCGCAAACCUUGAGGAUCACCCAAGGAUAUCGACGUCAAUGACGUCGAGAAGGUGGUUGAGCGC [#SharedSequence] (puzzle (switch architecture): Exclusion NG 3) | 95.6 | – | – | –
GUCAGCUCGUGAGGAUAUACAUCACUGCUUCGGCAGUGUAUUAAGAUAACAUGAGGAUCACCCAUGUAGAAGGCACGAGCUGAU [#MS2NeighbourBaseDeletion - ENG2/2-A2] (puzzle (switch architecture): Exclusion NG 2) | 8.5 | 5.49 | – | –
UAGAUAUGGUGAGGAUAUGCAAAGGAUCACCUUGUAGAAGGCAUCAGGGUAGAAGGUGCAAGGAUCACCUGUAAGGAUAUAUCC [pwkr2 ssNG1 DX.32] | – | – | 448 | 1670
UCACUCACGUCAGGAUAUGGAUCGGAAAACGAUCCAGAAGGGACCUGCAAACUUGAGGAUCACCCAGGUUCCAAUAACGAGUGA [SameSame 12 - Jieux - Same State NG 1] | – | – | 194 | 307
UCCGCUAUCGCAGGAUAUUACAUGGGAAAGAAUACAUGAGGAUCACCCAUGUAAAAGAUCAUAAAUAAGAAGGGCGAUAGCGGA [Lame State 8 - Jieux - Same State NG 2] | – | – | 123 | 654
UUCAAAGGGUGAGGAUAUGCACAGGAUCACCGUGUAGAAGGCAUCAGGUAGAAGGUGCAGAGGAUCACCCUGUAAGGAUAUAUC [pwkr2 ssNG1 DX.15] | – | – | 719 | 1020
